This is an account of results in patent US6475775B1, “PARG, a GTPase activating protein which interacts with PTPL1” (Ludwig Institute for Cancer Research, priority 1997, dated 2002).

In experiment [1] the target is T1, PDZ 4 of PTPL1 (GST-PDZ 4) (Homo sapiens, UniProt Q12923).
T1 construct: GST-PDZ 4, residues 1762-1864; made in house; host or cells: E. coli
T1 sequence (Q12923 1762-1864 isoform Q12923-3): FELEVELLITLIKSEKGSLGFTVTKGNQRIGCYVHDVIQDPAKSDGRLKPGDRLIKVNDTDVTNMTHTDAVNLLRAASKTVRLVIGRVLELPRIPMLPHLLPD
As to the kind of experiment: Binding of GST-PDZ fusion proteins to C-terminal PARG peptide. Conditions: peptide on Affigel 15 beads; 50 nM fusion protein; 4° C., 2 h; α-GST immunoblot. The text has this:
(§1) To identify proteins that bind to the PDZ domains of PTPL1, regions of PTPL1 cDNA corresponding to the various PDZ domains were produced by polymerase chain reaction and subcloned into the GST fusion protein expression vector pGEX1λT (Pharmacia): GST-PDZ 1. amino acid residues 1066-1166 of PTPL1; GST-PDZ 2-3. residues 1340-1579; GST-PDZ 3, residues 1469-1579; GST-PDZ 4, residues 1762-1864; GST-PDZ 4-5, residues 1762-1960 and GST-PDZ 5, residues 1856-1960 (FIG. 1A). Domains and motifs indicated in FIG. 1A are: L, leucine zipper motif; Band 4.1, a domain of 300 amino acid residues with homology to the Band 4.1 superfamily; P, PDZ domain; PTP, protein tyrosine phosphatase catalytic domain; GST, glutathione S-transferase. The different expression vector constructs were transformed into E. coli. Glutathione S-transferase (GST) fusion proteins were produced and purified as described by Ridley and Hall (Cell 70: 389-399, 1992) and then subjected to sodium dodecyl sulfate (SDS)-gel electrophoresis.
(§2) It has been shown that PDZ domains interact with the C-terminal ends of short peptides and that a valine residue at the absolute C-terminal end is important for binding (Kim et al., 1995; Komau et al., 1995; Saras et al., in preparation). […]
For orientation: In western blotting, separated proteins are transferred to a membrane and probed.

Another experiment deals with T2, GST-PDZ 4-5 of PTPL1 (Homo sapiens, UniProt Q12923).
T2 construct: GST-PDZ 4-5, residues 1762-1960; made in house; host or cells: E. coli
T2 sequence (Q12923 1762-1960 isoform Q12923-3): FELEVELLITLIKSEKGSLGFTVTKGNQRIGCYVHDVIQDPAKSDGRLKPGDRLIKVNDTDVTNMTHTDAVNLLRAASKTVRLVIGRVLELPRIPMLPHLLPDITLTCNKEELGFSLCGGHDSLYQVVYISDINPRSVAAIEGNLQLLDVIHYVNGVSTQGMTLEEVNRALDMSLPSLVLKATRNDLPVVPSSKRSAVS
The experiment is described as above. Conditions: peptide on Affigel 15 beads; 50 nM fusion protein; 4° C., 2 h; α-GST immunoblot.
From the text: as §1, §2

For the next experiment, the target named is T3, Cdc42 (Homo sapiens, UniProt P60953).
T3 construct: GST (N, cleaved yes); made in house; host or cells: E. coli
T3 sequence (P60953 1-191 isoform P60953-1): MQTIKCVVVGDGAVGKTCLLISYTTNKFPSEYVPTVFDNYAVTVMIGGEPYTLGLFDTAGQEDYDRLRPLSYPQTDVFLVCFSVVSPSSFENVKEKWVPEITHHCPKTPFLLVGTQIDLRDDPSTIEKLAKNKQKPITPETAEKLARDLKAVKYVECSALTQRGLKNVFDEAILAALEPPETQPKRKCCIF
As to the kind of experiment: GAP activity of PARG GAP domain (GTP hydrolysis, filter binding). In kind it is biochemical. Conditions: Cdc42 preloaded with γ-32P-GTP, 30° C. The text has this:
(§3) In order to determine the GAP activity of PARG on proteins of the Rho family, the GAP domain of PARG was produced as a GST fusion protein in E. coli (FIG. 5A). Briefly, a DNA fragment coding for the GAP domain, i.e., amino acid residues 658-898, of PARG was produced by polymerase chain reaction and subcloned into pGEX1λT and referred to as GST-GAP. pGEX2T-based expression vectors containing RhoA, Rac1 and Cdc42 (G25K isoform) cDNAs were obtained from Dr. A. Hall (MRC Laboratory for Molecular Cell Biology and Department of Biochemistry, University College London, UK). These different expression vector constructs were transformed into E. coli. The GST fusion proteins were produced and purified essentially as described above in Example 1. Recombinant Rho, Rac and Cdc42 proteins were subjected to thrombin cleavage (Ridley and Hall, 1992).
(§4) Recombinant Rho, Rac and Cdc42 were preloaded with γ-^32P-GTP and incubated for various time periods in the presence of the GST-GAP fusion protein or, as control, GST protein. Thereafter, the radioactivity bound to the GTPase was determined as a measurement of the GTP hydrolysis activity. Briefly, 200 nM aliquots of recombinant Rho, Rac and Cdc42 were incubated at 30° C. with 10 μCi γ-^32P-GTP in 20 mM Tris-HCI, pH 7.5, 25 mM NaCl, 4 mM EDTA, 0.1 mM dithiothreitol, and the nucleotide exchange was stopped after 10 min by the addition of 17 mM MgCl2. Proteins (100 nM GST, 1 nM or 20 nM of GST-GAP fusion protein) were added to the reaction mixture and aliquots of 5 μl were withdrawn and collected on nitrocellulose filters (HA, Millipore, Bedford, Mass.) at 3 min intervals. The filters were washed with cold buffer (50 mM Tris-HCI pH 7.5, 50 mM NaCl, 5 mM MgCl2), dried and subjected to scintillation counting. The amount of protein-bound radioactivity is expressed as the percentage of the total input.

For another experiment, the target named is T4, Rho (Homo sapiens, UniProt P61586).
T4 construct: GST (N, cleaved yes); made in house; host or cells: E. coli
T4 sequence (P61586 whole entry): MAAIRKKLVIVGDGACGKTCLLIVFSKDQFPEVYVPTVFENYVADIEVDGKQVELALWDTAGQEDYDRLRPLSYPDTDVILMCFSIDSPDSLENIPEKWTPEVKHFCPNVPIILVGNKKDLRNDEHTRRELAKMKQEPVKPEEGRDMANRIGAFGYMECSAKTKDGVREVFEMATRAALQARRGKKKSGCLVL
Described as above. Conditions: 1 nM GST-GAP; Rho preloaded with γ-32P-GTP; 30° C. In kind it is biochemical.
From the text: as §3, §4

The next experiment deals with T5, Rac (Homo sapiens, UniProt P63000).
T5 construct: GST (N, cleaved yes); made in house; host or cells: E. coli
The description is as above. In kind it is biochemical. Conditions: Rac preloaded with γ-32P-GTP, 30° C.
From the text: as §3, §4

Take “PQFV (listed as Homo sapiens) [synthetic peptide, last 4 C-terminal amino acid residues of PARG]”: the “binding of GST-PDZ 4 to the peptide” value in experiment [1] is recorded as “bound”. Moreover, in the experiment with GST-PDZ 4-5 of PTPL1, the “binding of GST-PDZ 4-5 to the peptide” value is “bound”.

B1: GST-GAP fusion protein: GAP domain, amino acid residues 658-898 of PARG, produced as a GST fusion protein in E. coli (protein)
chain: GHQKLPGKIHLFGAEFTLVAKKEPDGIPFILKICASEIENRALCLQGIYRVCGNKIKTEKLCLALENGMHLVDISEFSSHDICDVLKLYLRQLPEPFILFRLYKEFIDLAKEIQHVNEEQETKKNSLEDKKWPNMCIEINRILLKSKDLLRQLPASNFNSLHFLIVHLKRVVDHAEENKMNSKNLGVIFGPSLIRPRPQTAPITISSLAEYSNQARLVEFLITYSQKIFDGSLQPQDVMCS
modifications: left off: a dimerising Fc or GST
notes: GAP domain, amino acid residues 658-898 of PARG, produced as a GST fusion protein in E. coli
With B1, the “GAP activity on Cdc42” value with Cdc42 (1 nM GST-GAP) is reported as “no GAP activity”; with Cdc42 (20 nM GST-GAP), “active”. For the same molecule, in the experiment with Rho, the “GAP activity on Rho” value is “strong GAP activity”. For the same molecule, the “GAP activity on Rac” value with Rac (1 nM GST-GAP) is “no GAP activity”; in the experiment with Rac (20 nM GST-GAP), “active”.
